Measurements reported in patent publication US20190169261A1 (published 2019).

How the values were obtained:
[1] = target: T1, PRAME peptide on HLA-A*02:01 (human); experiment: killing
T1 peptide: SLLQHLIGL

[2] = target: T2, PRAME peptide on HLA-A*02:01 (human); experiment: multimer staining
T2 peptide: VLDGLDVLL

B1: TCR T4.8-1-29 (TCR, V domains shown)
Valpha: EDQVTQSPEALRLQEGESSSLNCSYTVSGLRGLFWYRQDPGKGPEFLFTLYSAGEEKEKERLKATLTKKESFLHITAPKPEDSATYLCAVHSTAQAGTALIFGKGTTLSVSS
Vbeta: DSGVTQTPKHLITATGQRVTLRCSPRSGDLSVYWYQQSLDQGLQFLIQYYNGEERAKGNILERFSAQQFPDLHSELNLSSLELGDSALYFCASSTHRGQTNYGYTFGSGTRLTVV
Q: Does B1 bind [1]?
A: no recognition

Q: Does B1 bind [2]?
A: recognises
